Test results from patent publication US20060115475A1 (published 2006).

How the values were obtained:
[1] = target: T1, Human hexa-histidine-TLR3 (human, UniProt O15455 24-703, limits assumed); experiment: Biacore 3000, hexa-histidine-TLR3 captured on anti-His antibody, mAb in solution, 25 C, 1:1 model
T1 construct: Captured by anti-His antibody on a CM5 chip; also called TLR3 (captured on the chip surface); not shown: hexa-histidine tag

[2] = target: T2, soluble human TLR3 extracellular domain (human, UniProt O15455 24-703); experiment: Biacore 2000, mAb captured on protein A, TLR3 in solution, 25 C, 1:1 model
T2 construct: also called hTLR3 extracellular domain; extracellular domain of human TLR3
Procedure: Measurement of binding affinity by Biacore was performed by mAb capture and TLR3 capture techniques. MAb capture analysis was performed at 25° C. using a Biacore 2000 biosensor equipped with a CM5 chip with surfaces modified with protein A (6,000 RU) at 25° C. by standard amine coupling. Antibody was diluted to 30 nM and captured for one minute on different protein A surfaces. TLR3 was injected at 0, 0.1, 0.3, 1.0, 3.0, and 9.0 nM and associations and dissociations were monitored for 5 minutes. The protein A modified surfaces were regenerated using two 6-second pulses 100 mM phosphoric acid. Available binding data sets were fit to a 1:1 interaction model (CLAMP™). The rate constants and their ratio (KD=kd/kₐ) and the error of fit carried over the estimate of the apparent equilibrium constants were calculated.

[3] = target: T2, soluble human TLR3 extracellular domain; experiment: ELISA, coated soluble hTLR3 extracellular domain, HRP-labeled anti-human IgG
[4] = target: T2, soluble human TLR3 extracellular domain; experiment: ELISA, TLR3 binding assay as in Example 20

Kd [1] [nM] | Kd [2] [nM] | EC50 [3] [µg/mL] | EC50 [4] [µg/mL] | Binder
1.7 | – | – | – | human-adapted anti-TLR3 mAb HV1/LV1 (antibody, human IgG4, V domains shown, Human IgG4 (S228P, F234A, L235A), kappa; not shown: human kappa light chain constant region) VH: QVQLVQSGAEVKKPGASVKVSCKASGYTFTTYWIHWVRQAPGQRLEWMGEINPNNGRINYNEKFKTRVTITRDTSASTAYMELSSLRSEDTAVYYCARVGVMITTFPYWGQGTLVTVSS VL: DIQMTQSPSSLSASVGDRVTITCRASGNIHNYLAWYQQKPGKAPKLLIYNAKTLADGVPSRFSGSGSGTDFTLTISSLQPEDFATYYCQHFWSTPFTFGQGTKLEIK
0.65 | 2 | 0.0155 | – | human-adapted anti-TLR3 mAb HV5/LV1 (antibody, human IgG4, V domains shown, Human IgG4 (S228P, F234A, L235A), kappa; not shown: human kappa light chain constant region) VH: QVQLVQSGAEVKKPGASVKVSCKASGYTFTTYWIHWVRQATGQGLEWMGEINPNNGRINYNEKFKTRVTMTRNTSISTAYMELSSLRSEDTAVYYCARVGVMITTFPYWGQGTLVTVSS VL: DIQMTQSPSSLSASVGDRVTITCRASGNIHNYLAWYQQKPGKAPKLLIYNAKTLADGVPSRFSGSGSGTDFTLTISSLQPEDFATYYCQHFWSTPFTFGQGTKLEIK
– | – | 1.82 | – | human-adapted anti-TLR3 mAb HV7/LV5 (antibody, human IgG4, V domains shown, Human IgG4 (S228P, F234A, L235A), kappa; not shown: human kappa light chain constant region) VH: QVQLVQSGAEVKKPGSSVKVSCKASGGTFSTYWIHWVRQAPGQGLEWMGEINPNNGRINYNEKFKTRVTITADESTSTAYMELSSLRSEDTAVYYCARVGVMITTFPYWGRGTLVTVSS VL: DIQMTQSPSSLSASVGDRVTITCRASGNIHNYLAWYQQKPGKVPKLLIYNAKTLADGVPSRFSGSGSGTDFTLTISSLQPEDVATYYCQHFWSTPFTFGGGTKVEIK
– | – | – | 0.017 | human-adapted C1068 variant mAb HBV1 (Vh CDR1 I34M in the HV1/LV1 background) (antibody, V domains shown, Made in the HV1/LV1 background and generated 'as described above'; not shown: human kappa light chain constant region) VH: QVQLVQSGAEVKKPGASVKVSCKASGYTFTTYWMHWVRQAPGQRLEWMGEINPNNGRINYNEKFKTRVTITRDTSASTAYMELSSLRSEDTAVYYCARVGVMITTFPYWGQGTLVTVSS VL: DIQMTQSPSSLSASVGDRVTITCRASGNIHNYLAWYQQKPGKAPKLLIYNAKTLADGVPSRFSGSGSGTDFTLTISSLQPEDFATYYCQHFWSTPFTFGQGTKLEIK
– | – | – | 0.0146 | human-adapted C1068 variant mAb HBV2 (Vh CDR2 Y60G in the HV1/LV1 background) (antibody, V domains shown, Made in the HV1/LV1 background; not shown: human kappa light chain constant region) VH: QVQLVQSGAEVKKPGASVKVSCKASGYTFTTYWIHWVRQAPGQRLEWMGEINPNNGRINGNEKFKTRVTITRDTSASTAYMELSSLRSEDTAVYYCARVGVMITTFPYWGQGTLVTVSS VL: DIQMTQSPSSLSASVGDRVTITCRASGNIHNYLAWYQQKPGKAPKLLIYNAKTLADGVPSRFSGSGSGTDFTLTISSLQPEDFATYYCQHFWSTPFTFGQGTKLEIK
3.4 | 0.5 | 0.0602 | – | human-adapted anti-TLR3 mAb HV4/LV3 (antibody, human IgG4, V domains shown, Human IgG4 (S228P, F234A, L235A), kappa; not shown: human kappa light chain constant region) VH: QVQLVQSGAEVKKPGASVKVSCKASGYTFTTYWIHWVRQAPGQGLEWMGEINPNNGRINYNEKFKTRVTMTRDTSISTAYMELSRLRSDDTAVYYCARVGVMITTFPYWGQGTLVTVSS VL: DIQMTQSPSSLSASVGDRVTITCRASGNIHNYLAWYQQKPGKAPKRLIYNAKTLADGVPSRFSGSGSGTEFTLTISSLQPEDFATYYCQHFWSTPFTFGQGTKLEIK
– | – | 0.183 | – | human-adapted anti-TLR3 mAb HV4/LV7 (antibody, human IgG4, V domains shown, Human IgG4 (S228P, F234A, L235A), kappa; not shown: human kappa light chain constant region) VH: QVQLVQSGAEVKKPGASVKVSCKASGYTFTTYWIHWVRQAPGQGLEWMGEINPNNGRINYNEKFKTRVTMTRDTSISTAYMELSRLRSDDTAVYYCARVGVMITTFPYWGQGTLVTVSS VL: DIQMTQSPSSLSASVGDRVTITCRASGNIHNYLAWFQQKPGKAPKSLIYNAKTLADGVPSRFSGSGSGTDFTLTISSLQPEDFATYYCQHFWSTPFTFGQGTKLEIK
– | – | 0.0291 | – | human-adapted anti-TLR3 mAb HV4/LV1 (antibody, human IgG4, V domains shown, Human IgG4 (S228P, F234A, L235A), kappa; not shown: human kappa light chain constant region) VH: QVQLVQSGAEVKKPGASVKVSCKASGYTFTTYWIHWVRQAPGQGLEWMGEINPNNGRINYNEKFKTRVTMTRDTSISTAYMELSRLRSDDTAVYYCARVGVMITTFPYWGQGTLVTVSS VL: DIQMTQSPSSLSASVGDRVTITCRASGNIHNYLAWYQQKPGKAPKLLIYNAKTLADGVPSRFSGSGSGTDFTLTISSLQPEDFATYYCQHFWSTPFTFGQGTKLEIK
90 | 7.2 | 0.289 | – | human-adapted anti-TLR3 mAb HV1/LV7 (antibody, human IgG4, V domains shown, Human IgG4 (S228P, F234A, L235A), kappa; not shown: human kappa light chain constant region) VH: QVQLVQSGAEVKKPGASVKVSCKASGYTFTTYWIHWVRQAPGQRLEWMGEINPNNGRINYNEKFKTRVTITRDTSASTAYMELSSLRSEDTAVYYCARVGVMITTFPYWGQGTLVTVSS VL: DIQMTQSPSSLSASVGDRVTITCRASGNIHNYLAWFQQKPGKAPKSLIYNAKTLADGVPSRFSGSGSGTDFTLTISSLQPEDFATYYCQHFWSTPFTFGQGTKLEIK
– | – | – | 0.0747 | human-adapted C1068 variant mAb HBV5 (Vh CDR3 M102I in the HV1/LV1 background) (antibody, V domains shown, Made in the HV1/LV1 background; not shown: human kappa light chain constant region) VH: QVQLVQSGAEVKKPGASVKVSCKASGYTFTTYWIHWVRQAPGQRLEWMGEINPNNGRINYNEKFKTRVTITRDTSASTAYMELSSLRSEDTAVYYCARVGVIITTFPYWGQGTLVTVSS VL: DIQMTQSPSSLSASVGDRVTITCRASGNIHNYLAWYQQKPGKAPKLLIYNAKTLADGVPSRFSGSGSGTDFTLTISSLQPEDFATYYCQHFWSTPFTFGQGTKLEIK
– | – | 0.0187 | – | human-adapted anti-TLR3 mAb HV4/LV5 (antibody, human IgG4, V domains shown, Human IgG4 (S228P, F234A, L235A), kappa; not shown: human kappa light chain constant region) VH: QVQLVQSGAEVKKPGASVKVSCKASGYTFTTYWIHWVRQAPGQGLEWMGEINPNNGRINYNEKFKTRVTMTRDTSISTAYMELSRLRSDDTAVYYCARVGVMITTFPYWGQGTLVTVSS VL: DIQMTQSPSSLSASVGDRVTITCRASGNIHNYLAWYQQKPGKVPKLLIYNAKTLADGVPSRFSGSGSGTDFTLTISSLQPEDVATYYCQHFWSTPFTFGGGTKVEIK
– | – | 0.0289 | – | human-adapted anti-TLR3 mAb HV5/LV3 (antibody, human IgG4, V domains shown, Human IgG4 (S228P, F234A, L235A), kappa; not shown: human kappa light chain constant region) VH: QVQLVQSGAEVKKPGASVKVSCKASGYTFTTYWIHWVRQATGQGLEWMGEINPNNGRINYNEKFKTRVTMTRNTSISTAYMELSSLRSEDTAVYYCARVGVMITTFPYWGQGTLVTVSS VL: DIQMTQSPSSLSASVGDRVTITCRASGNIHNYLAWYQQKPGKAPKRLIYNAKTLADGVPSRFSGSGSGTEFTLTISSLQPEDFATYYCQHFWSTPFTFGQGTKLEIK
– | – | 0.0786 | – | human-adapted anti-TLR3 mAb HV5/LV7 (antibody, human IgG4, V domains shown, Human IgG4 (S228P, F234A, L235A), kappa; not shown: human kappa light chain constant region) VH: QVQLVQSGAEVKKPGASVKVSCKASGYTFTTYWIHWVRQATGQGLEWMGEINPNNGRINYNEKFKTRVTMTRNTSISTAYMELSSLRSEDTAVYYCARVGVMITTFPYWGQGTLVTVSS VL: DIQMTQSPSSLSASVGDRVTITCRASGNIHNYLAWFQQKPGKAPKSLIYNAKTLADGVPSRFSGSGSGTDFTLTISSLQPEDFATYYCQHFWSTPFTFGQGTKLEIK
– | – | 4.26 | – | human-adapted anti-TLR3 mAb HV7/LV7 (antibody, human IgG4, V domains shown, Human IgG4 (S228P, F234A, L235A), kappa; not shown: human kappa light chain constant region) VH: QVQLVQSGAEVKKPGSSVKVSCKASGGTFSTYWIHWVRQAPGQGLEWMGEINPNNGRINYNEKFKTRVTITADESTSTAYMELSSLRSEDTAVYYCARVGVMITTFPYWGRGTLVTVSS VL: DIQMTQSPSSLSASVGDRVTITCRASGNIHNYLAWFQQKPGKAPKSLIYNAKTLADGVPSRFSGSGSGTDFTLTISSLQPEDFATYYCQHFWSTPFTFGQGTKLEIK
– | – | 1.47 | – | human-adapted anti-TLR3 mAb HV7/LV1 (antibody, human IgG4, V domains shown, Human IgG4 (S228P, F234A, L235A), kappa; not shown: human kappa light chain constant region) VH: QVQLVQSGAEVKKPGSSVKVSCKASGGTFSTYWIHWVRQAPGQGLEWMGEINPNNGRINYNEKFKTRVTITADESTSTAYMELSSLRSEDTAVYYCARVGVMITTFPYWGRGTLVTVSS VL: DIQMTQSPSSLSASVGDRVTITCRASGNIHNYLAWYQQKPGKAPKLLIYNAKTLADGVPSRFSGSGSGTDFTLTISSLQPEDFATYYCQHFWSTPFTFGQGTKLEIK
– | – | – | 0.0409 | human-adapted C1068 variant mAb HBV4 (Vh CDR2 F64G in the HV1/LV1 background) (antibody, V domains shown, Made in the HV1/LV1 background; not shown: human kappa light chain constant region) VH: QVQLVQSGAEVKKPGASVKVSCKASGYTFTTYWIHWVRQAPGQRLEWMGEINPNNGRINYNEKGKTRVTITRDTSASTAYMELSSLRSEDTAVYYCARVGVMITTFPYWGQGTLVTVSS VL: DIQMTQSPSSLSASVGDRVTITCRASGNIHNYLAWYQQKPGKAPKLLIYNAKTLADGVPSRFSGSGSGTDFTLTISSLQPEDFATYYCQHFWSTPFTFGQGTKLEIK
– | – | 0.0277 | – | human-adapted anti-TLR3 mAb HV1/LV5 (antibody, human IgG4, V domains shown, Human IgG4 (S228P, F234A, L235A), kappa; not shown: human kappa light chain constant region) VH: QVQLVQSGAEVKKPGASVKVSCKASGYTFTTYWIHWVRQAPGQRLEWMGEINPNNGRINYNEKFKTRVTITRDTSASTAYMELSSLRSEDTAVYYCARVGVMITTFPYWGQGTLVTVSS VL: DIQMTQSPSSLSASVGDRVTITCRASGNIHNYLAWYQQKPGKVPKLLIYNAKTLADGVPSRFSGSGSGTDFTLTISSLQPEDVATYYCQHFWSTPFTFGGGTKVEIK
– | – | 0.118 | – | human-adapted anti-TLR3 mAb HV1/LV3 (antibody, human IgG4, V domains shown, Human IgG4 (S228P, F234A, L235A), kappa; not shown: human kappa light chain constant region) VH: QVQLVQSGAEVKKPGASVKVSCKASGYTFTTYWIHWVRQAPGQRLEWMGEINPNNGRINYNEKFKTRVTITRDTSASTAYMELSSLRSEDTAVYYCARVGVMITTFPYWGQGTLVTVSS VL: DIQMTQSPSSLSASVGDRVTITCRASGNIHNYLAWYQQKPGKAPKRLIYNAKTLADGVPSRFSGSGSGTEFTLTISSLQPEDFATYYCQHFWSTPFTFGQGTKLEIK
– | – | – | 0.048 | human-adapted C1068 variant mAb HBV3 (Vh CDR2 N61A in the HV1/LV1 background) (antibody, V domains shown, Made in the HV1/LV1 background; not shown: human kappa light chain constant region) VH: QVQLVQSGAEVKKPGASVKVSCKASGYTFTTYWIHWVRQAPGQRLEWMGEINPNNGRINYAEKFKTRVTITRDTSASTAYMELSSLRSEDTAVYYCARVGVMITTFPYWGQGTLVTVSS VL: DIQMTQSPSSLSASVGDRVTITCRASGNIHNYLAWYQQKPGKAPKLLIYNAKTLADGVPSRFSGSGSGTDFTLTISSLQPEDFATYYCQHFWSTPFTFGQGTKLEIK
0.7 | 1.1 | 0.0137 | – | human-adapted anti-TLR3 mAb HV5/LV5 (antibody, human IgG4, V domains shown, Human IgG4 (S228P, F234A, L235A), kappa; not shown: human kappa light chain constant region) VH: QVQLVQSGAEVKKPGASVKVSCKASGYTFTTYWIHWVRQATGQGLEWMGEINPNNGRINYNEKFKTRVTMTRNTSISTAYMELSSLRSEDTAVYYCARVGVMITTFPYWGQGTLVTVSS VL: DIQMTQSPSSLSASVGDRVTITCRASGNIHNYLAWYQQKPGKVPKLLIYNAKTLADGVPSRFSGSGSGTDFTLTISSLQPEDVATYYCQHFWSTPFTFGGGTKVEIK
